Biological target: CD38 molecules expressed on Daudi human B-cell lymphoma cells (human) (UniProt P28907)
Assay: cell-based or functional assay

## anti-CD38 Ab (daratumumab) (antibody)
  ADCC of human PBMCs against Daudi cells, dose response of anti-CD38 Ab (0.1 nM to 50 nM); lowest antibody concentration with increased killing: 0.1 nM

— patent publication US20190048055A1
